The record followed here is patent US20190382475A1 (Novartis, published 2019).

Experiment [1] has as its target T1, recombinant human HER3 (human, UniProt P21860 20-643, limits assumed). Put plainly: SPR, BIAcore T200, antibody on chip, recombinant human antigen as analyte, steady state analysis. In general terms: SPR reads the build-up and loss of mass on a sensor chip optically.
Protocol: (§1) A direct binding assay was performed to characterize the binding of the engineered antibodies against their antigen. Kinetic binding affinity constants (KD) were measured on protein-A captured protein using recombinant human antigens as analyte. Measurements were conducted on a BIAcore® T200 (GE Healthcare, Glattbrugg, Switzerland) at room temperature. […] To serve as reference, one flow cell was blank immobilized. Binding data were acquired by subsequent injection of analyte dilutions series on the reference and measuring flow cell. Zero concentration samples (running buffer only) were included to allow double referencing during data evaluation. For data evaluation, doubled referenced sensograms were used and analyzed by steady state analysis to generate the equilibrium dissociation constant (KD).
For experiment [2], the target named is T1, recombinant human HER3. Put plainly: SPR, BIAcore T200, antibody on chip, recombinant human antigen as analyte, steady state analysis; second value taken for antibody 2 arm (HER3); HER3 arm (Antibody 2), second value of the cell.
Protocol: as §1
Experiment [3] has as its target recombinant human IL-17 (human, UniProt Q16552 24-155, limits assumed). Kind of experiment: SPR, BIAcore T200, antibody on chip, recombinant human antigen as analyte, steady state analysis; first value taken for antibody 1 arm (IL-17); IL-17 arm (Antibody 1), first value of the cell.
Protocol: as §1
For experiment [4], the target named is T2, recombinant human c-Kit (human, UniProt P10721 26-520, limits assumed). Kind of experiment: SPR, BIAcore T200, antibody on chip, recombinant human antigen as analyte, steady state analysis; first value taken for antibody 1 arm (c-Kit); c-Kit arm (Antibody 1), first value of the cell.
Protocol: as §1
Experiment [5] has as its target T2, recombinant human c-Kit. Put plainly: SPR, BIAcore T200, antibody on chip, recombinant human antigen as analyte, steady state analysis; second value taken for antibody 2 arm (c-Kit); c-Kit arm (Antibody 2), second value of the cell.
Protocol: as §1
Experiment [6] concerns the target T2, recombinant human c-Kit. Put plainly: SPR, BIAcore T200, antibody on chip, recombinant human antigen as analyte, steady state analysis.
Protocol: as §1

Where a chain is given by its changes, count along the chain named.

B1: anti-HER3 antibody, parental IgG1 (antibody, V domains shown)
VH: EVQLLESGGGLVQPGGSLRLSCAASGFTFSSYAMSWVRQAPGKGLEWVSVTGAVGRSTYYPDSVKGRFTISRDNSKNTLYLQMNSLRAEDTAVYYCARWGDEGFDIWGQGTLVTVSS
VL: DIQMTQSPSSLSASVGDRVTITCRASQGISNWLAWYQQKPGKAPKLLIYGASSLQSGVPSRFSGSGSGTDFTLTISSLQPEDFATYYCQQYSSFPTTFGQGTKVEIKR
notes: Parental, unmutated IgG1
B1: the Kd (commonly the concentration at which binding is half-saturated) in experiment [1] was determined as 1 nM.

B2: Mutated IL-17/Mutated HER3 (b) heterodimeric antibody (bispecific antibody)
heavy 1: not shown
light 1: AIQLTQSPSSLSASVGDRVTITCRPSQGINWELAWYQDKPGKAPKLLIYDASSLEQGVPSRFSGSGSGTDFTLTISSLQPEDFATYYCQQFNSYPLTFGGGTKVEIKRTVAAPSVFIFPPSDEKLKSGTASVVCLLNNFYPREAKVQWKVDNALQSGNSQESVTEQDSDDSTYSLSSTLTLSKADYEKHKVYACEVTHQGLSSPVTKSFNRGEC
heavy 2: not shown
light 2: DIQMTQSPSSLSASVGDRVTITCRASQGISNWLAWYQKKPGKAPKLLIYGASSLQSGVPSRFSGSGSGTDFTLTISSLQPEDFATYYCQQYSSFPTTFGQGTKVEIKRTVAAPSVFIFPPSDEDLKSGTASVVCLLNNFYPREAKVQWKVDNALQSGNSQESVTEQDSKDSTYSLSSTLTLSKADYEKHKVYACEVTHQGLSSPVTKSFNRGEC
notes: IgG1 bispecific
With B2, the Kd in experiment [2] worked out at 4 nM; in experiment [3], 0.01 nM.

B3: Mutated c-Kit/Mutated HER3 (a) heterodimeric antibody (bispecific antibody)
heavy 1: not shown
light 1: DIQMTQSPSSLSASVGDRVTITCRASQSISSYLNWYQKKPGKAPKLLIYYTSRLQSGVPSRFSGSGSGTDFTLTISSLQPEDFATYYCQQGRRLWSFGGGTKVEIKRTVAAPSVFIFPPSDEDLKSGTASVVCLLNNFYPREAKVQWKVDNALQSGNSQESVTEQDSKDSTYSLSSTLTLSKADYEKHKVYACEVTHQGLSSPVTKSFNRGEC
heavy 2: not shown
light 2: B2 light 2 with K38D, D124K, K169D
notes: IgG1 bispecific
Turning to B3, the Kd is 0.4 nM in experiment [2] and 22 nM in experiment [4].

B4: Mutated IL-17/Mutated c-Kit heterodimeric antibody (bispecific antibody)
heavy 1: not shown
light 1: B2 light 1
heavy 2: not shown
light 2: B3 light 1
notes: IgG1 bispecific
Regarding B4, the Kd in experiment [5] was 20 nM; in experiment [3] it was 0.07 nM.

B5: anti-c-Kit antibody, parental IgG1 (antibody, V domains shown)
VH: EVQLVESGGGLVQPGGSLRLSCAASGFAFSGYYMAWVRQAPGKGLEWVANINYPGSSTYYLDSVKGRFTISRDNAKNSLYLQMNSLRAEDTAVYYCARGDYYGTTYWYFDVWGQGTTVTVSS
VL: DIQMTQSPSSLSASVGDRVTITCRASQSISSYLNWYQQKPGKAPKLLIYYTSRLQSGVPSRFSGSGSGTDFTLTISSLQPEDFATYYCQQGRRLWSFGGGTKVEIKR
notes: Parental, unmutated IgG1, VH3/Vk1, made in-house
With B5, the Kd in experiment [6] is 20 nM.
